According to patent US7235648B1, “Yeast cells engineered to produce pheromone system protein surrogates, and uses therefor” (Cadus Technologies, Inc., priority 1993, dated 2007):
Ends that are not written are not given here.

Experiments:
Assay type in all cases: cell-based
STE3 = molecular target: T1, STE3 (Saccharomyces cerevisiae, UniProt P06783); assay: Autocrine yeast (CY599/CY2012, ste2-STE3) growth on histidine-deficient medium plus aminotriazole, fus1-HIS3 readout; conditions: for ability of the peptide-encoding plasmid to confer the His phenotype on CY2012 (a-factor analogues): -His medium with 0.2 mM 3-aminotriazole, random a-factor library
T1 construct: fragment containing the entire coding region of STE3 flanked by the two newly introduced Spe I sites; expressed in transfected cells; host or cells: S. cerevisiae CY599 / CY2012 (ste2-STE3, chromosomal replacement with Cadus 1147)
T1 sequence (P06783 1-470): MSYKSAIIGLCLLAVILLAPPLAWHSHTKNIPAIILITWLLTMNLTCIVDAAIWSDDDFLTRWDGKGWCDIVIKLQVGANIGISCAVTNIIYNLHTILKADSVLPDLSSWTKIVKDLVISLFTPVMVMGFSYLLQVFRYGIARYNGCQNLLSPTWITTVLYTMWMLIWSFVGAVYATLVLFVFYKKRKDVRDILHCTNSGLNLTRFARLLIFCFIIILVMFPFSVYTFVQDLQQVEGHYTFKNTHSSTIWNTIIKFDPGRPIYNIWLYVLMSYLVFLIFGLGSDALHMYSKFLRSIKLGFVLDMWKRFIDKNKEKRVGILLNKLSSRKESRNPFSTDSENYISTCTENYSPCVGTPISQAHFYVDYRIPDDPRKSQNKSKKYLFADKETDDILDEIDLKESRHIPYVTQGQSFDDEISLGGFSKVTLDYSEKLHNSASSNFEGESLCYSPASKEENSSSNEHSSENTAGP
Source text: A MATa strain designed for the expression of peptides in the context of MFA1 (i.e., using the MFA1 expression vector, Cadus 1239) has been constructed. The genotype of this strain, designated CY599, is […] mfa1 mfa2 far1-1 his3::fus1-HIS3 ste2-STE3 ura3 met1 ade1 leu2. In this strain, Cadus 1147 (see above) was used to replace STE2 with a hybrid gene in which the STE3 coding region is under the control of expression elements which normally drive the expression of STE2. As a result, the a-factor receptor replaces the α-factor receptor. The genes which encode a-factor are deleted from this strain: the far1 mutation abrogates the arrest of growth which normally follows stimulation of the pheromone response pathway; and the FUS1-HIS3 hybrid gene (integrated at the HIS3 locus) provides a selectable signal of activation of the pheromone response pathway. CY599 cells were expected to be capable of the transport of a-factor or a-factor-like peptides encoded by oligonucleotides expressed from Cadus 1239 by virtue of expression of the endogenous yeast transporter, Ste6.
Experiments were performed to test: 1. the ability of Cadus 1239 to function as a vector for the expression of peptides encoded by synthetic oligonucleotides; 2. the suitability of the oligonucleotides, as designed, to direct the export of farnesylated, carboxymethylated peptides through the pathway normally used by a-factor; 3. the capacity of CY599 to export these peptides; and 4. the ability of CY599 to respond to those peptides that stimulate the pheromone response pathway by growing on selective media. These tests were performed using an oligonucleotide which encodes the 12 amino acid a-factor; specifically, the degenerate sequence (NNN)n in the oligo-nucleotide cloned into Cadus 1239 (see above) (with n=12) encodes the peptide component of a-factor pheromone. CY599 was transformed with the resulting plasmid (Cadus 1220), and transformants selected on uracil-deficient medium were transferred to histidine-deficient medium supplemented with a range of concentrations of aminotriazole. […] Cadus 1220 and the designed oligonucleotide are competent to direct the expression and export of a farnesylated, carboxy-methylated peptide encoded by the (NNN)n sequence of the synthetic oligonucleotide; and 2. CY599 can, in an autocrine fashion, respond to a farnesylated, carboxy-methylated peptide that stimulates its pheromone response pathway, in this case signaling initiates as a-factor binds to STE3.
An optimized version of strain 6 (Example 2 above) was derived. This yeast strain, CY2012 (MATa ste2-STE3 far1Δ1442 mfa1::LEU2 mfa2-lacZ fus1-HIS3 tht1-1 ura3 leu2 his3 trp1 ste2), was constructed as follows. […]

STE2 receptor = molecular target: T2, STE2 receptor (Saccharomyces cerevisiae, UniProt D6VTK4); assay: Autocrine MATa yeast (CY588/CY1455) growth on histidine-deficient medium plus aminotriazole, fus1-HIS3 readout; conditions: -His medium with 1.0 mM or 2.5 mM aminotriazole
T2 construct: endogenous in cells; host or cells: S. cerevisiae MATa CY588 / CY1455
T2 sequence (D6VTK4 1-431): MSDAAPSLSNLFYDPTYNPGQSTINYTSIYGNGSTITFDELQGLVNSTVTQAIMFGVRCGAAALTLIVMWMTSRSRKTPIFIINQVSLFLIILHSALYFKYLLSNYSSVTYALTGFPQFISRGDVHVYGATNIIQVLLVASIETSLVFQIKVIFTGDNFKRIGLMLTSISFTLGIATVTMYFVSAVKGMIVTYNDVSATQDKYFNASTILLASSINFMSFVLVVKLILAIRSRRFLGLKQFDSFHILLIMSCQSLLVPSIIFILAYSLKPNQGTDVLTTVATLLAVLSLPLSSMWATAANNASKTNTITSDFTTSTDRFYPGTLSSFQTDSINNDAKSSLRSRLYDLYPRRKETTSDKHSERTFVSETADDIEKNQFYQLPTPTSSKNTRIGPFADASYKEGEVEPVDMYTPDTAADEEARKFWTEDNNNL

WKK6 cells = assay: Valinomycin filter disk assay on lawns of ste6 yeast (WKK6) expressing human Mdr1 constructs; conditions: 5 mM valinomycin in DMSO on filter disk
Procedure: CADUS plasmids 1065, 1079 and 1097 as well as a URA3 control plasmid (pRS426=1019) were transformed into a ura3^−, ste6^− strain of yeast (WKK6=CY20=MATa ura3-1 leu2-3.112 his3-11.15 trp1-1 ade2-1 can1-100 ste6::HIS3, obtained from Karl Kuchler). Individual transformants were grown overnight in SD-URA media and lawns containing approximately 5×10^6 cells were poured onto YPD plates in 3 ml of YPD top agar. Sterile filter disks were placed on the plates after the top agar had solidified, and […] of DMSO or 5 mM valinomycin in DMSO were spotted onto the filter disks.

[1] = molecular target: T3, wild-type human Mdr1 protein (Homo sapiens, UniProt P08183); assay: Halo assay of a-factor transport by human Mdr1 in ste6 yeast on supersensitive MATα lawn; conditions: yeast deleted for STE6; halo size 1097>1079~1065>1019
T3 construct: expressed in transfected cells; host or cells: S. cerevisiae WKK6 (CY20, ste6::HIS3), plasmid Cadus 1097
Procedure: A “halo” assay was performed by patching WKK6 cells containing the various Mdr1 constructs (1019, 1065, 1079 & 1097) onto a lawn of Matα cells which are supersensitive to a-factor (CY32=MATα leu2-3.112 trp1-289 ura3-52 his3*1 sst2*2 GAL+).

T3 sequence (P08183 whole entry): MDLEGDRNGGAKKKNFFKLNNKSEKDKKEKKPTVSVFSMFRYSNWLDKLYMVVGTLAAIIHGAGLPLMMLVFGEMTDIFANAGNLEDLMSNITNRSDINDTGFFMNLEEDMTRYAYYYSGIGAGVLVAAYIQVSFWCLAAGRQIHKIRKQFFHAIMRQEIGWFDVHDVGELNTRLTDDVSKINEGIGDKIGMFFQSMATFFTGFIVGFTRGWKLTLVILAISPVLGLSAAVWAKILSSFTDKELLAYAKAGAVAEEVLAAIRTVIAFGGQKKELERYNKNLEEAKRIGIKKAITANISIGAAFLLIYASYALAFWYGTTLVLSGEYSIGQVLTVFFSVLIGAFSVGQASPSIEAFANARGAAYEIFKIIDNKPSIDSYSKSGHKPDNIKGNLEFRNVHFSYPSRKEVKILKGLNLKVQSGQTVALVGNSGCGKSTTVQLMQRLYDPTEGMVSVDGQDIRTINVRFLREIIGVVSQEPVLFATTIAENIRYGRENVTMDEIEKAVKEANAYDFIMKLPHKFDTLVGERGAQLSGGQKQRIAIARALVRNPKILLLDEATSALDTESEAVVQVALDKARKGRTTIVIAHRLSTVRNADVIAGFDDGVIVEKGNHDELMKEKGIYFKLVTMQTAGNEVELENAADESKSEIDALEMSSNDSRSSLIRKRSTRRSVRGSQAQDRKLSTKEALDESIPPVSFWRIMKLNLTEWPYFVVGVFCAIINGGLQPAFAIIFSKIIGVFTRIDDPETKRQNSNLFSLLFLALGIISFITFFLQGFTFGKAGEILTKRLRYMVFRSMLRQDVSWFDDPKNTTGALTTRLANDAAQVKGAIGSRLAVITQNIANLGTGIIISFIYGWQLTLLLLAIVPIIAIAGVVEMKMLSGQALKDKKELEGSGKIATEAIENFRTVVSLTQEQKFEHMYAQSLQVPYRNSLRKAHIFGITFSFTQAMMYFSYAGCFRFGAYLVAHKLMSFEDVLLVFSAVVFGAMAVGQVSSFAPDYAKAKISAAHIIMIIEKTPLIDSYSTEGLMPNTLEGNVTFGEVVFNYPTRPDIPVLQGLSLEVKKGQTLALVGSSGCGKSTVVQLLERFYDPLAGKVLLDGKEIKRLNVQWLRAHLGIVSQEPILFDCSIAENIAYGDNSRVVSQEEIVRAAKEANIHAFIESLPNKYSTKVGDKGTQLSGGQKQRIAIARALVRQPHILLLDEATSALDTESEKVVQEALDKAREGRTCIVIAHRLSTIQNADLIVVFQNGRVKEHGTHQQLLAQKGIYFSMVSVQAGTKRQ

YALFVHFFDIP [SEQ ID NO:53]
ability of the peptide-encoding plasmid to confer the His phenotype on CY2012 (a-factor analogues) (STE3): confer the His^− phenotype

WHWMELRPGQPMY [SEQ ID NO:51]
agonist activity on the STE2 receptor, MFα-5.8 library (STE2 receptor): acted as agonists

WHWLELMPGQPLY [SEQ ID NO49]
agonist activity on the STE2 receptor, MFα-5.8 library (STE2 receptor): acted as agonists

CC(C)[C@@H]1NC(=O)[C@H](C)OC(=O)[C@@H](C(C)C)NC(=O)[C@@H](C(C)C)OC(=O)[C@H](C(C)C)NC(=O)[C@H](C)OC(=O)[C@@H](C(C)C)NC(=O)[C@@H](C(C)C)OC(=O)[C@H](C(C)C)NC(=O)[C@H](C)OC(=O)[C@@H](C(C)C)NC(=O)[C@@H](C(C)C)OC1=O [valinomycin]
resistance to valinomycin conferred by mutant Mdr1 (G185V) (WKK6 cells; WKK6 cells with plasmid 1079): weak resistance | resistance to valinomycin conferred by wild type Mdr1 (WKK6 cells; WKK6 cells with plasmid 1097): complete resistance

LMSPSFFFLPA [SEQ ID NO:57]
ability of the peptide-encoding plasmid to confer the His phenotype on CY2012 (a-factor analogues) (STE3): confer the His^− phenotype

Tyr Ile Ile Lys Gly Val Phe Trp Asp Pro Ala (YIIKGVFWDPA; not fully specified (C-terminus); printed as Tyr Ile Ile Lys Gly Val Phe Trp Asp Pro Ala; also: C-terminal cysteine carboxymethylated) [a-factor, yeast dodecapeptide mating pheromone with C-terminal farnesylated, carboxymethylated cysteine, reference compound]
aminotriazole-resistant growth on histidine-deficient media (autocrine response, a-factor binds to STE3) (STE3; CY599 transformed with Cadus 1220, range of aminotriazole concentrations): enhanced aminotriazole-resistant growth | transport by wild-type human Mdr1 protein [1]: can be transported

Trp His Trp Leu Gln Leu Thr Pro Gly Gln Pro Met Tyr (WHWLQLTPGQPMY) [SEQ ID NO:47]
agonist activity on the STE2 receptor, MFα-5.8 library (STE2 receptor): acted as agonists

FKGQVRFVVLA [SEQ ID NO:55]
ability of the peptide-encoding plasmid to confer the His phenotype on CY2012 (a-factor analogues) (STE3): confer the His^− phenotype
